The values below come from the Human Domainome abundance scans (Beltran et al. 2025).

± gives the uncertainty stated by the source.

A short description of this series: abundance fitness (aPCA) (normalised: wild type 0, dead -1); higher = more abundant; growth selection in yeast, the domain comes from the species named. The note with it: Homo sapiens.
On to “BAG family molecular chaperone regulator 3 Q11S, O95817”, for which the abundance fitness was determined as 0.63 ± 0.11.

The substance “BAG family molecular chaperone regulator 3 Q11T, O95817” came in with an abundance fitness of 0.18 ± 0.49.

In turn, “BAG family molecular chaperone regulator 3 Q11V, O95817” registered an abundance fitness of 0.619 ± 0.1.

Turning to “BAG family molecular chaperone regulator 3 Q11Y, O95817”, the abundance fitness turned out to be 0.795 ± 0.15.

The substance “BAG family molecular chaperone regulator 3 Q33A, O95817” gave an abundance fitness of 0.032 ± 0.15.

In turn, “BAG family molecular chaperone regulator 3 Q33C, O95817” gave an abundance fitness of -0.352 ± 0.2.

Consider “BAG family molecular chaperone regulator 3 Q33E, O95817”, for which the abundance fitness turned out to be 0.11 ± 0.064.

In turn, “BAG family molecular chaperone regulator 3 Q33F, O95817” registered an abundance fitness of -0.183 ± 0.27.

As for “BAG family molecular chaperone regulator 3 Q33G, O95817”, the abundance fitness is 0.128 ± 0.059.

As to “BAG family molecular chaperone regulator 3 Q33H, O95817”, the abundance fitness was -0.708 ± 0.49.

Substance “BAG family molecular chaperone regulator 3 Q33I, O95817” yielded an abundance fitness of -0.499 ± 0.35.

For the substance “BAG family molecular chaperone regulator 3 Q33K, O95817”, the abundance fitness was 0.035 ± 0.21.

In turn, “BAG family molecular chaperone regulator 3 Q33M, O95817” yielded an abundance fitness of -0.29 ± 0.3.

Substance “BAG family molecular chaperone regulator 3 Q33N, O95817” returned an abundance fitness of -0.357 ± 0.29.

As to “BAG family molecular chaperone regulator 3 Q33P, O95817”, the abundance fitness was -0.591 ± 0.3.

“BAG family molecular chaperone regulator 3 Q33S, O95817” returned an abundance fitness of -0.265 ± 0.14.

Turning to “BAG family molecular chaperone regulator 3 Q33T, O95817”, the abundance fitness is -0.583 ± 0.3.

Turning to “BAG family molecular chaperone regulator 3 Q33V, O95817”, the abundance fitness was -0.428 ± 0.068.

“BAG family molecular chaperone regulator 3 Q33W, O95817”: the abundance fitness was -0.384 ± 0.081.

Substance “BAG family molecular chaperone regulator 3 Q33Y, O95817” came in with an abundance fitness of -0.545 ± 0.46.

Take “BAG family molecular chaperone regulator 3 R19A, O95817”: the abundance fitness is -0.071 ± 0.11.

“BAG family molecular chaperone regulator 3 R19C, O95817” registered an abundance fitness of -0.341 ± 0.19.

“BAG family molecular chaperone regulator 3 R19D, O95817”: the abundance fitness is -0.499 ± 0.31.

As to “BAG family molecular chaperone regulator 3 R19E, O95817”, the abundance fitness was found to be 0.208 ± 0.15.

The substance “BAG family molecular chaperone regulator 3 R19F, O95817” gave an abundance fitness of -0.743 ± 0.32.

For “BAG family molecular chaperone regulator 3 R19G, O95817”, the abundance fitness is -0.35 ± 0.12.

“BAG family molecular chaperone regulator 3 R19H, O95817” came in with an abundance fitness of -0.399 ± 0.18.

As for “BAG family molecular chaperone regulator 3 R19I, O95817”, the abundance fitness turned out to be 0.367 ± 0.17.

The substance “BAG family molecular chaperone regulator 3 R19K, O95817” registered an abundance fitness of 0.042 ± 0.11.

“BAG family molecular chaperone regulator 3 R19L, O95817”: the abundance fitness is -0.455 ± 0.17.

Take “BAG family molecular chaperone regulator 3 R19M, O95817”: the abundance fitness is -0.37 ± 0.28.

On to “BAG family molecular chaperone regulator 3 R19N, O95817”, for which the abundance fitness was -0.125 ± 0.13.

Turning to “BAG family molecular chaperone regulator 3 R19P, O95817”, the abundance fitness was -0.253 ± 0.23.

For “BAG family molecular chaperone regulator 3 R19Q, O95817”, the abundance fitness is -0.333 ± 0.084.

For the substance “BAG family molecular chaperone regulator 3 R19S, O95817”, the abundance fitness was -0.006 ± 0.062.

Substance “BAG family molecular chaperone regulator 3 R19T, O95817” returned an abundance fitness of -0.169 ± 0.096.

In turn, “BAG family molecular chaperone regulator 3 R19V, O95817” returned an abundance fitness of -0.221 ± 0.073.

As for “BAG family molecular chaperone regulator 3 R19W, O95817”, the abundance fitness was -0.342 ± 0.073.

In turn, “BAG family molecular chaperone regulator 3 R19Y, O95817” showed an abundance fitness of -0.27 ± 0.094.

As to “BAG family molecular chaperone regulator 3 R45C, O95817”, the abundance fitness is -0.165 ± 0.17.

Substance “BAG family molecular chaperone regulator 3 R45D, O95817” displayed an abundance fitness of -0.557 ± 0.32.

Substance “BAG family molecular chaperone regulator 3 R45E, O95817” had an abundance fitness of -0.422 ± 0.2.

Turning to “BAG family molecular chaperone regulator 3 R45F, O95817”, the abundance fitness was -0.4 ± 0.087.

“BAG family molecular chaperone regulator 3 R45G, O95817” displayed an abundance fitness of -0.087 ± 0.085.

Substance “BAG family molecular chaperone regulator 3 R45H, O95817” had an abundance fitness of 0.367 ± 0.25.

Turning to “BAG family molecular chaperone regulator 3 R45K, O95817”, the abundance fitness was -0.043 ± 0.077.

Substance “BAG family molecular chaperone regulator 3 R45L, O95817” displayed an abundance fitness of -0.594 ± 0.18.

In turn, “BAG family molecular chaperone regulator 3 R45M, O95817” had an abundance fitness of -0.442 ± 0.2.

As to “BAG family molecular chaperone regulator 3 R45N, O95817”, the abundance fitness worked out at 0.54 ± 0.18.

As for “BAG family molecular chaperone regulator 3 R45P, O95817”, the abundance fitness is -0.321 ± 0.35.

“BAG family molecular chaperone regulator 3 R45Q, O95817” showed an abundance fitness of 0.541 ± 0.17.

“BAG family molecular chaperone regulator 3 R45S, O95817” registered an abundance fitness of -0.354 ± 0.084.

“BAG family molecular chaperone regulator 3 R45T, O95817”: the abundance fitness is -0.409 ± 0.28.

In the case of “BAG family molecular chaperone regulator 3 R45V, O95817”, the abundance fitness was -0.692 ± 0.091.

With “BAG family molecular chaperone regulator 3 R45W, O95817”, the abundance fitness was -0.843 ± 0.18.

For the substance “BAG family molecular chaperone regulator 3 R45Y, O95817”, the abundance fitness was -0.229 ± 0.22.

Regarding “BAG family molecular chaperone regulator 3 R53A, O95817”, the abundance fitness was -0.422 ± 0.14.

“BAG family molecular chaperone regulator 3 R53C, O95817” returned an abundance fitness of -0.551 ± 0.23.

“BAG family molecular chaperone regulator 3 R53D, O95817” returned an abundance fitness of -0.822 ± 0.49.
